Earlier results, collected in PMC6557524.

Target: CCR2 (UniProt P41597)
UniProt P41597, sequence (P41597 whole entry): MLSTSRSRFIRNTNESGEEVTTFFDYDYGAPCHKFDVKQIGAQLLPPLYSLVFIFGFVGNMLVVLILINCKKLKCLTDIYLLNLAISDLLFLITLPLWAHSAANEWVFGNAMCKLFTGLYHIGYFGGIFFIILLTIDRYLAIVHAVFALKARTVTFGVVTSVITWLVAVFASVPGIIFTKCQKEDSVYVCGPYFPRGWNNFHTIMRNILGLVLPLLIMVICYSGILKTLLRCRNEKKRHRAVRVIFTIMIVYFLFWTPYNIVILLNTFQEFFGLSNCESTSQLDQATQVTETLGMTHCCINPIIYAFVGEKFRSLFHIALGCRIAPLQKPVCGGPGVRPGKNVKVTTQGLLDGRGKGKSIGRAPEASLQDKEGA

## CCL2 (from UniProt P13500)
  Kd: 2.1 nM
